Measurements from patent US20240101959A1, “USE OF IL-2R-BETA-GAMMA AGONIST PEPTIDES IN CELL MANUFACTURING” (MEDIKINE, INC., priority 2022, published 2024).
Read-outs that look alike come from different tables or passages of the source. Non-standard residues stand in square brackets, D forms with d. No end group written: not given here. Alb = not defined here

T1: hu-IL-2Rγc subunit (Homo sapiens, UniProt P31785)
T1 sequence (P31785 23-369): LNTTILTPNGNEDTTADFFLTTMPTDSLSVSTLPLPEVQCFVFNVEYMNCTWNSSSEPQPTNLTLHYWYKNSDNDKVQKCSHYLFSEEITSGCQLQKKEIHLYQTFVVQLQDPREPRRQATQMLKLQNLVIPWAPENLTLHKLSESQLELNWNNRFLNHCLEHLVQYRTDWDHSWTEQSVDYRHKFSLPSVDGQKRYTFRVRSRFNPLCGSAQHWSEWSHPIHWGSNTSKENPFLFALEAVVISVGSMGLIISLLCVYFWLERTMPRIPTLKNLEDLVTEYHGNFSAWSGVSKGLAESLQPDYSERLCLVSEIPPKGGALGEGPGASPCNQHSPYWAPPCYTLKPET

T2: hu-IL-2Rβ subunit (Homo sapiens, UniProt P14784)
T2 sequence (P14784 27-551): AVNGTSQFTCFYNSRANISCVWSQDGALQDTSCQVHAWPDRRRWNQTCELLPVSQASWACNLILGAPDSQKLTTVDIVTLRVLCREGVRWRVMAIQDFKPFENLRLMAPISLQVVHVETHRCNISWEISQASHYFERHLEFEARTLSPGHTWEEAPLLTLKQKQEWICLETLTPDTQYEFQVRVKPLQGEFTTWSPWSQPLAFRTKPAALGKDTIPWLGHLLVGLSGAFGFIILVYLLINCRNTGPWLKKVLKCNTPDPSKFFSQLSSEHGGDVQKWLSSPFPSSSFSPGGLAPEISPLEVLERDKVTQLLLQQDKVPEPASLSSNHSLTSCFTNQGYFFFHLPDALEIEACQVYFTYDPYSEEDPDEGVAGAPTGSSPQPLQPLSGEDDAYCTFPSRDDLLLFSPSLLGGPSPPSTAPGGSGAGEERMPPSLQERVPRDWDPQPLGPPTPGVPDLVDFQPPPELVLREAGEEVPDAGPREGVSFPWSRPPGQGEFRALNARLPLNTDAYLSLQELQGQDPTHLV

T3: IL-2Rβ (Homo sapiens, UniProt P14784)
T3 sequence (P14784 27-551): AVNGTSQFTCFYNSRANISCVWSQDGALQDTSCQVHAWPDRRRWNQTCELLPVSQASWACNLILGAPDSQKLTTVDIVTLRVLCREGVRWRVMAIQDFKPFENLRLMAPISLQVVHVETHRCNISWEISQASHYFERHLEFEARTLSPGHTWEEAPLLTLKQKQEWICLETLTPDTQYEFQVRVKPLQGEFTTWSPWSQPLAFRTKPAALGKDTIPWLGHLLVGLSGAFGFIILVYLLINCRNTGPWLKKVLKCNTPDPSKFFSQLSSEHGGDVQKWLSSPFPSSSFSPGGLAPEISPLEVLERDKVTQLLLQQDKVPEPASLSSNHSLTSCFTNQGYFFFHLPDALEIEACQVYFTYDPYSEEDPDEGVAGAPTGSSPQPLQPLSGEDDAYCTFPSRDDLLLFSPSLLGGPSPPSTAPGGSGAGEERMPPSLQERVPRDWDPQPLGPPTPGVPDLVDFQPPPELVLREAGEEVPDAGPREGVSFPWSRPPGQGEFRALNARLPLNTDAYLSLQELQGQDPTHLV

T4: hu-IL-2Rγc subunit (human, UniProt P31785 23-262, limits assumed)
T4 construct: also called human interleukin-2 receptor subunit γ; CD132
T4 sequence (looked up): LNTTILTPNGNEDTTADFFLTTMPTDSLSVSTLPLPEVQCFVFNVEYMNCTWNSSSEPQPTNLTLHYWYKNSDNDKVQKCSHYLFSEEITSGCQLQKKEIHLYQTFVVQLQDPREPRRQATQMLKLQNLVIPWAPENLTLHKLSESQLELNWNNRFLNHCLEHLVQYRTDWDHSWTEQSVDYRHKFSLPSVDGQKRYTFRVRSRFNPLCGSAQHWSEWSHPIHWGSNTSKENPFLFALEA

T5: hu-IL-2Rγc subunit (human), P31785
T5 chain: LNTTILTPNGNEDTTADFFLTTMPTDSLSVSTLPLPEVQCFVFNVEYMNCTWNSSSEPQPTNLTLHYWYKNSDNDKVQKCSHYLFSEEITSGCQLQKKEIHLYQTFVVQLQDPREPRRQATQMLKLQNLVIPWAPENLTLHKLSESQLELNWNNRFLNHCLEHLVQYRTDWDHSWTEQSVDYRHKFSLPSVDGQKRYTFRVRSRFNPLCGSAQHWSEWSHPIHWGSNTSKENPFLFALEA

B1: SEQ ID NO 744 (peptide)
peptide: GGVVCQDWEGV[Alb]LCWQGG
modifications: not fully specified; printed as G G V V C Q D W E G V Alb L C W Q G G; cysteine pairing not given here; reading uncertain

Legend:
hu-IL-2Rγc subunit [1] = target: T1, hu-IL-2Rγc subunit; assay: competitive binding at the specific binding site on the hu-IL-2Rγc subunit
hu-IL-2Rβ subunit = target: T2, hu-IL-2Rβ subunit; assay: competitive binding at the specific binding site on the hu-IL-2Rβ subunit
Excerpt: This specific binding site on the hu-IL-2Rβ subunit to which the group of IL-2Rβ ligands bind can be characterized using competitive binding assays as described.

IL-2Rβ = target: T3, IL-2Rβ; assay: competition with IL-2 binding to IL-2Rβ
hu-IL-2Rγc subunit [2] = target: T4, hu-IL-2Rγc subunit; assay: phage ELISA competition assay
hu-IL-2Rγc subunit [3] = target: T4, hu-IL-2Rγc subunit
[4] = target: T5, hu-IL-2Rγc subunit (human), P31785
[5] = target: T5, hu-IL-2Rγc subunit (human), P31785

Row | Molecule | IC50 (hu-IL-2Rγc subunit [2]) | IC50 (hu-IL-2Rγc subunit [3]) | other results
1 | S L L K C Y N A S T C A S V F (SLLKCYNASTCASVF) [SEQ ID NO: 723] | – | – | competition with the group of IL-2Rγc ligands (SEQ ID NO: 935-940) for the specific binding site on the hu-IL-2Rγc subunit (hu-IL-2Rγc subunit [1]): do not compete
2 | R S C Y Y K R P R L W C S E (RSCYYKRPRLWCSE) [SEQ ID NO: 931] | – | – | competition with the group of IL-2Rβ ligands for the specific binding site on the IL-2Rβ subunit (hu-IL-2Rβ subunit): does not compete
3 | R W G D V G D L L M P L (RWGDVGDLLMPL) [SEQ ID NO: 934] | – | – | competition with IL-2 binding to IL-2Rβ (IL-2Rβ): do not bind competitively
4 | D C S M W E G V E L C W (DCSMWEGVELCW) [SEQ ID NO: 935] | – | – | competition with the group of IL-2Rβ ligands for the specific binding site on the IL-2Rβ subunit (hu-IL-2Rβ subunit): does not compete; competition with IL-2 binding to IL-2Rβ (IL-2Rβ): do not bind competitively
5 | Y D C R I A Q V G E L C D L (YDCRIAQVGELCDL) [SEQ ID NO: 932] | – | – | competition with the group of IL-2Rγc ligands (SEQ ID NO: 935-940) for the specific binding site on the hu-IL-2Rγc subunit (hu-IL-2Rγc subunit [1]): does not compete; competition with IL-2 binding to IL-2Rβ (IL-2Rβ): do not bind competitively
6 | N M C L V G D Y W P S C Q I (NMCLVGDYWPSCQI) [SEQ ID NO: 933] | – | – | competition with IL-2 binding to IL-2Rβ (IL-2Rβ): do not bind competitively
7 | VTCQEYEGVELCWTVGCAYS [SEQ ID NO 698] | < 10 µM | < 100 µM | –
8 | B1 | – | < 100 µM | –
9 | VVCQEWEGVELCWC [SEQ ID NO 661] | < 10 µM | < 100 µM | –
10 | KKIVVCQDWGGVELCWTEDD [SEQ ID NO 708] | < 10 µM | < 100 µM | –
11 | EGSTTTIECEEWAGVELCWL [SEQ ID NO 664] | < 10 µM | < 100 µM | –
12 | GGVVCQDWEGVELCWQGPPA [SEQ ID NO 749] | – | < 100 µM | –
13 | KTTVACQDWGGVELCWVERV [SEQ ID NO 689] | < 10 µM | < 100 µM | –
14 | KVCEMWGGVLLCWN (modifications not checked) [SEQ ID NO 936] | – | – | IC50 [4]: < 10 µM; IC50 [5]: < 100 µM
15 | IECEEWAGVELCWL [SEQ ID NO 716] | < 10 µM | – | –
16 | ILCQEFEGVELCWLEESLAE [SEQ ID NO 675] | < 10 µM | < 100 µM | –
17 | VVCQEWEGVELCWYAGECMQ [SEQ ID NO 674] | < 10 µM | < 100 µM | –
18 | LALRKEVVCQEYYGVELCWI [SEQ ID NO 641] | < 10 µM | < 100 µM | –
19 | AHSRQEVVCEEWYGVELCWI [SEQ ID NO 649] | < 10 µM | < 100 µM | –
20 | GGVVCQDWEGVSLCWQGG [SEQ ID NO 746] | – | < 100 µM | –

Row | Molecule | IC50 (hu-IL-2Rγc subunit [2]) | IC50 (hu-IL-2Rγc subunit [3]) | other results
21 | GGVVCQDWEGVGLCWQGG [SEQ ID NO 747] | – | < 100 µM | –
22 | GGVVCQDWEGVELCWQPPA (not fully specified (bridges); cysteine pairing not given here) [SEQ ID NO 748] | – | < 100 µM | –
23 | YSRELYVQCEDWEGVELCWI [SEQ ID NO 651] | < 10 µM | < 100 µM | –
24 | DVECVDWGGVELCWH [SEQ ID NO 646] | < 10 µM | < 100 µM | –
25 | RLLNSVVECLDWEGVELCWQ [SEQ ID NO 659] | < 10 µM | < 100 µM | –
26 | VVCEVFQGVELCWCENEEFT [SEQ ID NO 693] | < 10 µM | < 100 µM | –
27 | VGIECEEWAGVELCWL [SEQ ID NO 715] | < 10 µM | < 100 µM | –
28 | VVCQEWEGVELCWVEPPLLP [SEQ ID NO 686] | < 10 µM | < 100 µM | –
29 | FAHHGVVECQEWYGVELCWQ [SEQ ID NO 670] | < 10 µM | < 100 µM | –
30 | WSKKAEVVCEEWGGVEFCWI [SEQ ID NO 672] | < 10 µM | < 100 µM | –
31 | RSNQTVVECQDWEGVELCWQ [SEQ ID NO 673] | < 10 µM | < 100 µM | –
32 | GYGVVCEDFRGVELCWLERK [SEQ ID NO 712] | < 10 µM | < 100 µM | –
33 | IECEEWAGVELCWL [SEQ ID NO 667] | < 10 µM | < 100 µM | –
34 | MVNREVVVCEDWYGVELCWQ [SEQ ID NO 643] | < 10 µM | < 100 µM | –
35 | RTGVECQDWHGVELCWPVWE [SEQ ID NO 711] | < 10 µM | < 100 µM | –
36 | RSDDEVVVCQEWEGVELCWQ [SEQ ID NO 666] | < 10 µM | < 100 µM | –
37 | IECDTSYGVYICWQ [SEQ ID NO 637] | < 10 µM | < 100 µM | –
38 | ILCEEWQGVELCWLEGGGS [SEQ ID NO 714] | < 10 µM | < 100 µM | –
39 | KPVVVCEEWQGVELCWLEIQ [SEQ ID NO 692] | < 10 µM | < 100 µM | –
40 | KLTVECQDWDGVELCWVGVE [SEQ ID NO 684] | < 10 µM | < 100 µM | –
